Experimental data from patent US7183377 (US Dept. of Health and Human Services, dated 2007).

Molecular target: T1, Wingless (Wg), the Drosophila homolog of Wnt-1 (Drosophila, UniProt P09615 18-468)
T1 construct: mature; Used as unpurified conditioned medium in the ELISAs
T1 sequence (looked up): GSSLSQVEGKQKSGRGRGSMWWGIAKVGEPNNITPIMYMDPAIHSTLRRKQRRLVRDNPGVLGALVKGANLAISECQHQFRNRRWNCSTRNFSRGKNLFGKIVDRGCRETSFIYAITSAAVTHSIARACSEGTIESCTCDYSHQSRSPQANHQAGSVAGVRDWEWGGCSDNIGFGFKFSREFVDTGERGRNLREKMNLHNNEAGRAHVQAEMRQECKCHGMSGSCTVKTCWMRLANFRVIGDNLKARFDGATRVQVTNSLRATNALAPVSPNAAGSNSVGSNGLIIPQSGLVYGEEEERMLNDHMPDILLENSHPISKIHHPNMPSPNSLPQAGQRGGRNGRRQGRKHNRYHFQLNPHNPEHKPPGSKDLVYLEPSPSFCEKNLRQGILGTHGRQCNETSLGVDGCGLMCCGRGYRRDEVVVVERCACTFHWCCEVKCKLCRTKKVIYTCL
Assay: ELISA: FRP coated at 100 ng/well, Wg-containing S2 conditioned medium, detection with anti-Wg antibody
Description: As an alternative, cell-free systems to study the binding of FRP and Wnts were developed. These systems have the advantage of simplicity, as the profile of endogenous Frizzled/FRP/Wnt expression would not be an issue. Moreover, experiments now can be performed with purified recombinant FRP. One model system disclosed in detail below makes use of an ELISA type of format. Microtiter wells are first coated with purified FRP, and then blocked with a large excess of bovine serum albumin (BSA). To minimize the problems associated with solubilizing Wnts, initial studies focused on studying FRP binding to Wingless (Wg) because an expression system is available that releases Wg into conditioned medium. Van Leeuwen, et al., Nature 368:342–344 (1994). Although expression of a heat shock-Wg construct in transfected S2 insect cells results in only a small fraction of recombinant Wg in the media, it is sufficient for binding studies and obviates the need for detergents or other agents to extract the protein from cell surfaces or extracellular matrix. […] After washing, the wells are sequentially incubated with antibody to Wg, secondary antiserum (against the Wg antibody) conjugated to alkaline phosphatase, and p-nitrophenol phosphate. […]
FIG. 13 illustrates the binding of FRP and Wg. […] Color development, monitored at 405 nm, was indicative of Wg binding in the well.

binding result: binds
B1: human Frizzled-related protein (FRP) (receptor)
chain: VGSASEYDYVSFQSDIGPYQSGRFYTKPPQCVDIPADLRLCHNVGYKKMVLPNLLEHETMAEVKQQASSWVPLLNKNCHAGTQVFLCSLFAPVCLDRPIYPCRWLCEAVRDSCEPVMQFFGFYWPEMLKCDKFPEGDVCIAMTPPNATEASKPQGTTVCPPCDNELKSEAIIEHLCASEFALRMKIKEVKKENGDKKIVPKKKKPLKLGPIKKKDLKKLVLYLKNGADCPCHQLDNLSHHFLIMGRKVKSQYLLTAIHKWDKKNKEFKNFMKKMKNHECPTFQSVFK
notes: The natural protein purified from M426 medium began 11 residues further downstream (residue 38), with a second N-terminus three residues later; The N-terminus of the recombinant protein is not reported; In the ELISAs it was untagged full-length FRP purified from the medium of MDCK cells transfected with pcDNA3.1(+); also called hFRP; recombinant FRP
